According to IntAct's records for PubMed 20059542:

B1: 26S proteasome regulatory subunit RPN10 (Saccharomyces cerevisiae), P38886 (parent)
chain: MVLEATVLVIDNSEYSRNGDFPRTRFEAQIDSVEFIFQAKRNSNPENTVGLISGAGANPRVLSTFTAEFGKILAGLHDTQIEGKLHMATALQIAQLTLKHRQNKVQHQRIVAFVCSPISDSRDELIRLAKTLKKNNVAVDIINFGEIEQNTELLDEFIAAVNNPQEETSHLLTVTPGPRLLYENIASSPIILEEGSSGMGAFGGSGGDSDANGTFMDFGVDPSMDPELAMALRLSMEEEQQRQERLRQQQQQQDQPEQSEQPEQHQDK
partner: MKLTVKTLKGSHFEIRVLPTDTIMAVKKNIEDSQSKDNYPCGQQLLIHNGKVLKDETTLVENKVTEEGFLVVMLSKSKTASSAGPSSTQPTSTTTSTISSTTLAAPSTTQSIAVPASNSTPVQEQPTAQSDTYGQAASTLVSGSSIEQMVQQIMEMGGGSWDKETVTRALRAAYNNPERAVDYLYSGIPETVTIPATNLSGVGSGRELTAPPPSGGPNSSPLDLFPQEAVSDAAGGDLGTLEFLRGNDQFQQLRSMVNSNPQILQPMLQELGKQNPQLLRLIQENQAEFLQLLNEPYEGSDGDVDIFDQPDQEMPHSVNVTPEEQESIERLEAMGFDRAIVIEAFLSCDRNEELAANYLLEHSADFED
B2: 26S proteasome regulatory subunit RPN10 (Saccharomyces cerevisiae), P38886 (parent)
chain: B1 chain
B3: 26S proteasome regulatory subunit RPN13 (Saccharomyces cerevisiae), O13563 (parent)
chain: MSMSSTVIKFRAGVCEYNEDSRLCTPIPVQGEIEIKPNEEEELGFWDFEWRPTEKPVGRELDPISLILIPGETMWVPIKSSKSGRIFALVFSSNERYFFWLQEKNSGNLPLNELSAKDKEIYNKMIGVLNNSSESDEEESNDEKQKAQDVDVSMQD
B4: Proteasomal ubiquitin receptor ADRM1 (Homo sapiens), Q16186 (parent)
chain: MTTSGALFPSLVPGSRGASNKYLVEFRAGKMSLKGTTVTPDKRKGLVYIQQTDDSLIHFCWKDRTSGNVEDDLIIFPDDCEFKRVPQCPSGRVYVLKFKAGSKRLFFWMQEPKTDQDEEHCRKVNEYLNNPPMPGALGASGSSGHELSALGGEGGLQSLLGNMSHSQLMQLIGPAGLGGLGGLGALTGPGLASLLGSSGPPGSSSSSSSRSQSAAVTPSSTTSSTRATPAPSAPAAASATSPSPAPSSGNGASTAASPTQPIQLSDLQSILATMNVPAGPAGGQQVDLASVLTPEIMAPILANADVQERLLPYLPSGESLPQTADEIQNTLTSPQFQQALGMFSAALASGQLGPLMCQFGLPAEAVEAANKGDVEAFAKAMQNNAKPEQKEGDTKDKKDEEEDMSLD
B5: 26S proteasome non-ATPase regulatory subunit 4 homolog (Arabidopsis thaliana (Mouse-ear cress)), P55034 (parent)
chain: MVLEATMICIDNSEWMRNGDYSPSRLQAQTEAVNLLCGAKTQSNPENTVGILTMAGKGVRVLTTPTSDLGKILACMHGLDVGGEINLTAAIQIAQLALKHRQNKNQRQRIIVFAGSPIKYEKKALEIVGKRLKKNSVSLDIVNFGEDDDEEKPQKLEALLTAVNNNDGSHIVHVPSGANALSDVLLSTPVFTGDEGASGYVSAAAAAAAAGGDFDFGVDPNIDPELALALRVSMEEERARQEAAAKKAADEAGQKDKDGDTASASQETVARTTDKNAEPMDEDSALLDQAIAMSVGDVNMSEAADEDQDLALALQMSMSGEESSEATGAGNNLLGNQAFISSVLSSLPGVDPNDPAVKELLASLPDESKRTEEEESSSKKGEDEKK
partner: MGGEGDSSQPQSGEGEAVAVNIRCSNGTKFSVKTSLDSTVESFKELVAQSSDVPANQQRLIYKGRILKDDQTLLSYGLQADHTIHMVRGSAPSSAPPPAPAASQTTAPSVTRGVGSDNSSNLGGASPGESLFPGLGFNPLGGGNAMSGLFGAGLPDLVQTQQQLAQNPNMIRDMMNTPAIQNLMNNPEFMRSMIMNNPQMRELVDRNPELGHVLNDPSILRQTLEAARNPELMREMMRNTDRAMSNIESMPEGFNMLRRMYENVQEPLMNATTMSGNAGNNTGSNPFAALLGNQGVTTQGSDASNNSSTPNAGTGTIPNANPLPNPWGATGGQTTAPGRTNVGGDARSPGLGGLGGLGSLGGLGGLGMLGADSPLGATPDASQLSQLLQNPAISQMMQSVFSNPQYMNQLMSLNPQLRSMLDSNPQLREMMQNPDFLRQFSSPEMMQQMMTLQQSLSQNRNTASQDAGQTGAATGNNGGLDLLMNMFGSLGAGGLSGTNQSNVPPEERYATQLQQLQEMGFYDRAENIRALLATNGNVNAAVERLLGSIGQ

Variants of: B1
Conditions: with rd23a_arath RAD23A

Variant | effect of a mutation on the interaction
L228N;A229N;M230N;A231N;L232N | disrupting interaction strength

Variants of: B2
Conditions: with dsk2_yeast DSK2, P48510

Variant | effect of a mutation on the interaction
L228N;A229N;M230N;A231N;L232N | disrupting interaction strength

Variants of: B2
Conditions: with ubql2_human UBQLN2, Q9UHD9

Variant | effect of a mutation on the interaction
L228N;A229N;M230N;A231N;L232N | disrupting interaction strength

Variants of: B3
Conditions: with dsk2_yeast DSK2, P48510

Variant | effect of a mutation on the interaction
E72Q | disrupting interaction

Variants of: B3
Conditions: with dsk2_yeast DSK2, P48510
Remark: another data set of the same source

Variant | effect of a mutation on the interaction
L43A | decreasing interaction

Variants of: B3
Conditions: with dsk2_yeast DSK2, P48510
Remark: another data set of the same source

Variant | effect of a mutation on the interaction
F91R | disrupting interaction

Variants of: B4
Conditions: with ubql2_human UBQLN2, Q9UHD9

Variant | effect of a mutation on the interaction
F76R | disrupting interaction

Variants of: B4
Conditions: with dsk2_yeast DSK2, P48510

Variant | effect of a mutation on the interaction
F76R | disrupting interaction

Variants of: B4
Conditions: with ubc_human UBC

Variant | effect of a mutation on the interaction
F76R | decreasing interaction

Variants of: B4
Conditions: with ubql2_human UBQLN2, Q9UHD9
Remark: another data set of the same source

Variant | effect of a mutation on the interaction
L56A | disrupting interaction

Variants of: B4
Conditions: with dsk2_yeast DSK2, P48510
Remark: another data set of the same source

Variant | effect of a mutation on the interaction
L56A | disrupting interaction

Variants of: B4
Conditions: with ubc_human UBC
Remark: another data set of the same source

Variant | effect of a mutation on the interaction
L56A | decreasing interaction

Variants of: B4
Conditions: with ubql2_human UBQLN2, Q9UHD9
Remark: another data set of the same source

Variant | effect of a mutation on the interaction
F98R | disrupting interaction

Variants of: B4
Conditions: with dsk2_yeast DSK2, P48510
Remark: another data set of the same source

Variant | effect of a mutation on the interaction
F98R | disrupting interaction

Variants of: B4
Conditions: with ubc_human UBC
Remark: another data set of the same source

Variant | effect of a mutation on the interaction
F98R | decreasing interaction strength

Variants of: B4
Conditions: with ubc_human UBC
Remark: another data set of the same source

Variant | effect of a mutation on the interaction
F98R | decreasing interaction

Variants of: B4
Conditions: with ubql1_human UBQLN1, Q9UMX0

Variant | effect of a mutation on the interaction
D79N | decreasing interaction

Variants of: B4
Conditions: with dsk2_yeast DSK2, P48510
Remark: another data set of the same source

Variant | effect of a mutation on the interaction
D79N | disrupting interaction

Variants of: B4
Conditions: with ubc_human UBC
Remark: another data set of the same source

Variant | effect of a mutation on the interaction
D79N | decreasing interaction

Variants of: B5
Conditions: with dsk2b_arath DSK2B

Variant | effect of a mutation on the interaction
L286N;L287N;Q289N;A290D;L310N;A311N;L312N;A313D;L314N | with no effect
